Assay: soluble on expression in E. coli; label from the status in PepcDB or PDB records

Sequence	soluble on expression in E. coli
GPGSMNVDDFRTVIPSPVYVATRGERSGINVAVRALAPVTDVVFDMEEQFAVVCQRRRFSTYAISSWMESLDVPSIPGAAVPLVSVEPQGFSSLGFALSALQFLSSSLHVIAGYHRAPVVDIFDLENVDEETSEPQQRFNLTDVKENGNVEDGSSAYANDVMPMDRYVSLGALSSGLSVWLDSRSGKAEACTGVLTRQYTIGAHNRHTGRRDPLACVTSLCQGNPANILLGTEAGALQLWDVRCARECVAQHMTSASICRLHPSYSYPLRNVVWLNTLAGCVEAVSVGQSDMELLARRLCPDFQRSSSTFHLPPPRLSFMESSGVVACPHISSGKLLLYDGSSLVKQPNNSRTQLSSYNRGVDGKDNEYENGHCSNFGGFLREASSSSEESGEREIPLLNALPSEANALVTACTVWSNRDMFVLGDETGRVQLL	not soluble
MGHHHHHHSHMEEMKKTAIRLPKGKQKPIKTEWNSRCVLFTYFQGDISSVVDEHFSRALSNIKSPQELTPSSQSEGVMLKNDDSMSPNQWRYSSPWTKPQPEVPVTNRAANCNLHVPGPMAVNQFSPSLARRASVRPGELWHFSSLAGTSSLEPGYSHPFPARHLVPEPQPDGKREPLLSLLQQDRCLARPQESAARENGNPGQIAGSTGLLFNLPPGSVHYKKLYVSRGSASTSLPNETLSELETPGKYSLTPPNHWGHPHRYLQHL	not soluble
MNDYTQQLQGKKDYLKTLFAGLDVPEWEVYESPDKHYRMRAEFRIWHEGGEMFYAMFEKGQKASGASMIRCDRFEAASEAVNRLMPELIAAAAQSPELKKRWYAVEFLSTLSGEMLVTMIYHKRLDAEWMQAAQALQQQLDISVIGRSRGQKIVLKQDYVTETLKVGNRDFRYRQIEGS	not soluble
MFDVDIKFGDVYVRNIEEKDIGELKEILKDKKFYLNDEELKEIFLEYYMSECEFFTKILKKGKFVGVFRGRIEFKSSNMAWISYFYVDERYSSYKDSQDILMNILEYFSESFGVTDFITGVTNSEKDMIELWENNDFKTVRINKEFYSDRGYKEDLVIMKKYSAI	not soluble
MASSINNRKPSEIFKAQALLYKNMYAFVDSMSLKWSIEMNIPNIIHNHGKPITLSNLVSILQIPSTKVDNVQRLMRYLAHNGFFEIITNQELENEEEAYALTVASELLVKGTELCLAPMVECVLDPTLSTSFHNLKKWVYEEDLTLFAVNLGCDLWEFLNKNPEYNTLYNDALASDSKMINLAMKDCNLVFEGLESIVDVGGGNGTTGKIICETFPKLTCVVFDRPKVVENLCGSNNLTYVGGDMFISVPKADAVLLKAVLHDWTDKDCIKILKKCKEAVTSDGKRGKVIVIDMVINEKKDENQLTQIKLLMNVTISCVNGKERNEEEWKKLFIEAGFQDYKISPFTGLMSLIEIYP	soluble
DMWVYCETQAGDLVDVSKEMLGKARELMNDYNAAYDEDERVVAVLIGAAASDHVEDVIAYGADLVVYHEDDRLDRFRHQPYTEIFCDMARAGGDLAADGREETEWKDYHEPRYTVFPATNNGRDLSALVQGELDSGLASDCSGLYIESAMISNPAKVGTAGDKKEFERVLHMKRPDFSGFEYSTILCIDKPHRDFHPQGASVIPGSFEMPDPDYERDGEVVDYGMDIDDDWFTVEVEEYDRLSGGVD	not soluble
MVAATPVQFVLPPLPEAPTAAAARLDGLSLADSGGGAGVRTVRLREALYGAGPYESADASMAELAAQIASLDRDKARSALAAVWQATVLGRPNRAANQVALAAAGGVLLLVDVAVQRLAGVRLEGGARSCSREDEEEAVMALLVLENLSCNVSLHRDMVLGAPGPHLLQMLVALAKDNTAAAAVRVNAAKVLVNLTFSQIELAAAATEAGALPAAVSLLQAGQKQALAETDAEVALGLHRQGAWLLSHLTAGQGCQARELLAAQPQALARIKDLLTTSRDTATLIRCCEVVCNLARGDVGPHAELIRAGLVQVLLKLVEVETEAPAPTGAARSEGSSVDLLLPALTALAALAAGGAACARGLLAHAPLLRTLTGALEWSNLISRDHDLSRVMLAAHSLVYVLGRFALRNRIVVPGVRAGVVVDAGMGATPAAATPQAQQVLQESGYVSFAAAMAALGLQQPRYTAAILGTELESGPHSAVASAAYQVNTELLPMMRHDNARMVVNTCARLYQIAVCLRDSPECRSVLSNTSLSLALSDLLRSQHSSVLQAALCLTDALAALPEVVPQLAANGVLDRLCDLLHNTSAQPQEHKAGTADTAGDPLVVLLAERALVTMFLTRGQHQAE	not soluble
MTVEASRPARSRQAVIFCYNAGYLPFALHAAERIDRLTPGRAFDICICHGEEPILVPDSLSRLDVRLIRIDTTGVFTGLRLDPGRTHDVYLRLALPQALAADYDRILYLDADIFVQGGDFTALLGLDLGNHPLGAVRDNIQWRTPERRAEQFRRLGIPAAPYFNAGLLLMDVARYNEMNLLDRCVELGRREASRMIRHDQNLYNAVLRGDWAELSPMWNWQYSWSARLFEAMRYPHIVHFIGTLKPWADRKGHYSPRFAQSYDRFIADHFPDRPRNPVSGGLSPDSRMMRRMLVKHFLSSSKLARYLDRFPSDLTVIRLEHHHHHH	not soluble
MSLALYLGNKRMNDMYYTIGQVAKMQHLTISQIRYYDKQGLFPFLQRNEKGDRIFNEEALKYLEMILCLKNTGMPIQKIKQFIDWSMEGDSTILHRLKLMKQQEANVLQLIQDTEKNLKKIQQKIAKYEDEISSANATTKEGHHHHHH	soluble
CQDYIPVKDQKVVDLMSRDVVAIDASDRLVDVVEFLCIDKEQLYPTSSMGIATRLTSLSLEERAKSMKVSKPQVLPVLENGQMVGVVTRQEVLKALRPVFGERLNLVEDKALETA	not soluble
MTENKSFKESHPLDDFISDKELSNTTIQKEKLTIEQQKQVDTISKQINPLDNEGLLAFGSDLQKQMSQFSHQMLDEVQSKDVGPIGDTLSDLMSKLKSVNPNELNTDKPSMLKRIFSRAKSSINEIFSRMQSVSAQVDRITIQLQKHQTHLTRDIELLDTLYDKNKQYFDDLSLHIIAAQQKKLQLENEKLPQLQQQAQQSTNQMDIQQVSDMQQFIDRLDKRIYDLQLSRQIALQTAPQIRMIQNVNQALAEKIQSSILTSIPLWKNQMAIALTLMRQRNAVAAQRAVTDTTNDLLTANAEMLKQNAIETATENERGIVDLDTLKRTQRNIIETIEETLIIQQHGREERQLAEKELQQLEQDLKSHLVNIKGPNKQS	not soluble
LDNEMLTLDIVASDLLTLQALNAARLKEAGAVDATFVTKAINEQPLNLGQGIWLSDSAEGNLRSAIAVSRAANAFDVDGETAAMLVSVAMNDDQPIAVLKRLADLLLDNKADRLLKADAATLLALLTSDDAPTDDV	not soluble
MGSSHHHHHHGGTGENLYFQGGSGAGIKSRERLRRDQERQLRQLPFLYHRVKDLQDTCERLEQELASSHQRVAAFQQEAFALRSLIKFTEHPELAAAAKNDAAKHVLQEEVRELRNQVQRLRREKELSLRQSEEACEAAEFYKELCDQLYEESLRAAEAIAVGGATSGLESVVTPLPNRNVDDMTLAVSTAPSTATSMEAQMRQLHGALELERARSSALVETVSLLHTAMKATTAAGTKRSTPAPDSSAGWAERRREDDTSGICASRSRVFADDTRKSRTRLKRLAAVLRVENRLLTQRVTEVVARNMRCVKEISALKLANKRLELNQRQES	soluble
GHMPTKQQLLYEGKAKKIYATDEPDVLWVEYKDSATAFNGEKKATIAGKGRLNNEISSLLFLKLREAGIANHFIEKLSPTEQLVRRVTIIPLEVVVRNVVAGSLAKRIGLEEGTPLEAPLVEFYYKNDDLGDPLLLEDHIFILKLASREEVAALKQAALAVNDVLRLHFAERNVRLIDFKLEFGRTADGAILLADEISPDTCRLWDAKTNEKLDKDVFRRDLGSLTDAYEVILQRLGGESACTK	soluble
MENQPKLNSSKEVIAFLAERFPHCFSAEGEARPLKIGIFQDLVERVGGEMNLSKTQLRSALRLYTSSWRYLYGVKPGATRVDLDGNPCGELEEQHVEHARKQLEEAKARVQAQRAEQQAKKREAAAAAGEKEDAPRRERKPRPVARRKEGAERKPRADKPTTKAPRAPREEKHTPVSDISVLTVGQSLKVKAGNNAMDATVLEITKDGVRVQLNSGMSLIVRAEHLVF	not soluble
MAASMTKPISITSLGFYSDRKNIAFSDCISICSGFRHSRPSCLDLVTKSPSNNSRVLPVVSAQISSDYIPDSKFYKVEAIVRPWRIQQVSSALLKIGIRGVTVSDVRGFGAQGGSTERHGGSEFSEDKFVAKVKMEIVVKKDQVESVINTIIEGARTGEIGDGKIFVLPVSDVIRVRTGERGEKAEKMTGDMLSPS	not soluble
MKTVDSELFDSGPFKKNFAFGNADHSTASPFEISTTPIEVNESRAHKTIEISNRARLESQNDGCLSPSSLKSVLDEIQTEPRCKSPQHIDLHTFRDAVDVNYQRMAITGEELSGVPLEDLKTASGHLIEALHLRSKYMERIGNQFPSTTRNFLSGHYPANLPKHRVKNTETTVQTSFNPPDPPKDHWGKNDPLPKYEKIYHLRRNRGVTEICNDDGSIDQQFKNVNVTKEEFLNDTEKLTAMIVDGPLKSFCFRRLSYLENKFQLHVLLNELRELHEQKGVSHRDFYNIRKVDTHIHAASSMNQKHLLRFIKKKIKTEADTVVLNNNGTKVTMKEVFKKMGIDAYDLSVDMLDVHADRNTFHRFDKFNTKYNPVGESTLREIFIKTDNYVGGKYFADLLKEVLSDLEDSKYQHAEPRLSIYGRSKNEWDNLAKWALTHDVWSPNARWLVQIPRLYDVYRAKNMVKNFDDMLDNLFTPLFEVTNDPSSHPELHLFLQQISGIDSVDDESKHEFVNFDRSTPCPPEYTDLENPPYNYYLFYMYRNICALNAFRRARGLNTFALRPHCGEAGHVSHLLTGYLTSESIAHGILLRKVPVLQYLYYLTQIGIAMSPLSNNSLFISYQRNPLPEYLQKGLNVSLSTDDPLQFHYTKEALMEEFSIAAQVWKLSSCDMCELARNSVMQSGFEDKVKIHWLGPNYKEEGVLGNDIHRTNVPDIRVSFRHEALVDELYNLFRVQNTLKQ	not soluble
MEIRWMKSFVAVAEELNYGRAAEVLHIAQPAVSQQVQQLEKRLGVKLFDRTTRSVRLTAAGERFLQPCKDALAGIVRAVDAAVIADPAVEGRVRVGFSGAYGQTELSSLARSVRRRYPLIDLVLEGATVSGQILDEIWEGQLDLGIVSDAVSHPHVLTRQISVEYLSALLPSDHPLAERKSIDLAELRDETFVANPAATGSTLRRDLLAACRDAGFTPNIVQETTDGIVLTALVAAGVGVALVPGDVQTYPNRVVLVPLDAGRYEVRAALAWSDRPVSPVVQTVLDLAAEVLPSPDALAVEQ	not soluble
MGSDKIHHHHHHMRTNVRLLAYRLLRKYEKEKFISREDVDSVLSFLDDRDRRFFKELVWGVVRKEELLDWYINQLLKKKDIPPAVRVALRMGAYQLLFMNSVPDYAAVSETVKLVKNENFKKLVNAVLRRLRTVPEPKELHLVYSHPEWIVNYWRSFLPEEAVLRIMKWNQEPLPVMLRVNSLAATKEEVIKILAEEGTEAVPGKHAPFSLIVRKLGVPMNDSRVINDGLASVQGESSQLVPFFMELRPGLRVLDTCAAPGGKTTAIAELMKDQGKILAVDISREKIQLVEKHAKRLKLSSIETKIADAERLTEYVQDTFDRVLVDAPCTSLGTARNHPEVLRRVNKEDFEKFSEIQLRMVQQAWQLLEKGGILLYSTCTVTKEENTEVVKRFVYEQKDVEVIDIRDKMKEFEVEGIWDGYGFLMLPDETITPFYISVLRKMG	not soluble
